Reference: patent publication US20240084017A1 (ASCENDO BIOTECHNOLOGY, published 2024)
Changes are numbered by the printed parent chain. Each block holds one binder with its values, some of them ahead of it.

Columns and labels:
[1] = target: T1, human Mac-1 (integrin αMβ2, CD11b/CD18) (human, UniProt P11215 17-1152; P05107 23-769); experiment: flow cytometry, HEK293/Mac-1 cells, PBS (Mock), 10 µg/ml of this antibody; binding of reporter mAb m24 read
Procedure: (§1) The HEK293/Mac-1 cells (clone1-4) were counted and washed twice with staining buffer (PBS containing 1% FBS, and 0.1% sodium azide). Cells were adjusted at a concentration of 1×10⁵ cells/ml in staining buffer and treated with/without 0.25 mM MnCl₂ (Sigma). Cells were treated with anti-Mac-1 antibodies and fluorescent conjugated anti-human IgG4 antibodies and incubated for 15 mins. After washing with the staining buffer, the cells were analyzed by flow cytometry. In some examples, these cells were treated with the antibodies (ICRF44, KIM127, m24, or isotype control) in the presence or absence 10 μg/ml anti-Mac-1 antibodies. The cells were then incubated at 37° C. for 30 min. After washing with the staining buffer, the cells were analyzed by flow cytometry.
(§2) TABLE III The anti-Mac-1 antibodies can serve as agonist to enhance the conformational change of Mac-1. HEK293/Mac-1 cells (clone1-4) were incubated with 10 μg/ml anti-Mac-1 antibodies under the PBS (Mock) condition. Binding of KIM127 or m24 was detected using flow cytometry.

[2] = target: T1, human Mac-1 (integrin αMβ2, CD11b/CD18); experiment: flow cytometry, HEK293/Mac-1 cells (clone 1-4), PBS/MnCl2 (Mn2+)
Procedure: as §1
(§3) TABLE II The anti-Mac-1 antibodies selectively bind to different statuses of human Mac-1. HEK293/Mac-1 cells (clone1-4) were incubated in PBS (Mock), or PBS/MnCl₂ (Mn²⁺). Binding of isotype control IgG, the CD11b specific mAb (ICRF44), the CD11b activation-sensing mAb (CBRM1/5), or the screened anti-Mac-1 antibody was detected using flow cytometry.

[3] = target: T1, human Mac-1 (integrin αMβ2, CD11b/CD18); experiment: flow cytometry, HEK293/Mac-1 cells, PBS (Mock), 10 µg/ml of this antibody; binding of reporter mAb KIM127 read
Procedure: as §1, §2

[4] = target: T1, human Mac-1 (integrin αMβ2, CD11b/CD18); experiment: flow cytometry, HEK293/Mac-1 cells, PBS/MnCl2 (Mn2+), 10 µg/ml of this antibody; binding of reporter mAb KIM127 read
Procedure: as §1
(§4) TABLE IV The anti-Mac-1 antibody can serve as an antagonist to reduce the conformational change of Mac-1. HEK293/Mac-1 cells (clone1-4) were incubated with 10 μg/ml anti-Mac-1 antibodies under the PBS/MnCl₂ (Mn²⁺) condition. Binding of KIM127 or m24 was detected using flow cytometry.

[5] = target: T1, human Mac-1 (integrin αMβ2, CD11b/CD18); experiment: flow cytometry, HEK293/Mac-1 cells; MFI in PBS over MFI in PBS/MnCl2
Procedure: as §1, §3

[6] = target: T1, human Mac-1 (integrin αMβ2, CD11b/CD18); experiment: flow cytometry, HEK293/Mac-1 cells (clone 1-4), PBS (Mock)
Procedure: as §1, §3

[7] = target: T1, human Mac-1 (integrin αMβ2, CD11b/CD18); experiment: flow cytometry, HEK293/Mac-1 cells, PBS/MnCl2 (Mn2+), 10 µg/ml of this antibody; binding of reporter mAb m24 read
Procedure: as §1, §4

B1: anti-Mac-1 antibody clone 27A04 (antibody, human IgG4, V domains shown)
VH: QVKLQQSGPELVKPGASVKISCKASGYSFTDYNMNWVKQSNGKSLEWIGVINPNYGTTSYNQKFKGKATLTVDQSSSTAYMQLNSLTSEDSAVYYCARTYDYDGDAFAYWGQGTTVTVSS
VL: DIELTQSPAIMSASPGEKVTMTCSASSSVSYMHWYQQKSGTSPKRWIYDTSKLASGVPARFSGSGSGTSYSLTISSMEAEDAATYYCQQWSSNPPTFGAGTKLELK
m24 (Expression relative to IgG4) [1]: 0.78 relative to IgG4
Mn^2+ MFI [2]: 39800 MFI
KIM127 (Expression relative to IgG4) [3]: 1.05 relative to IgG4
KIM127 (Expression relative to IgG4) [4]: 0.7 relative to IgG4
Mock/Mn^2+ Ratio [5]: 0.91
Mock MFI [6]: 36100 MFI
m24 (Expression relative to IgG4) [7]: 0.88 relative to IgG4

B2: anti-Mac-1 antibody clone 27A06 (antibody, human IgG4, V domains shown)
VH: B1 VH with K13T, A24P, V50E, S59R, Y60H, T69S, N84I, G104E
VL: B1 VL with G40D
m24 (Expression relative to IgG4) [1]: 0.88 relative to IgG4
Mn^2+ MFI [2]: 48000 MFI
KIM127 (Expression relative to IgG4) [3]: 1.04 relative to IgG4
KIM127 (Expression relative to IgG4) [4]: 0.85 relative to IgG4
Mock/Mn^2+ Ratio [5]: 1.35
Mock MFI [6]: 64600 MFI
m24 (Expression relative to IgG4) [7]: 0.88 relative to IgG4

B5: anti-Mac-1 antibody clone 25A06 (antibody, human IgG4, V domains shown)
VH: EVQLVESGGGLVQPGGSLRLSCAASGFTFSSYYMSWVRQAPGKGLEWVSTINYDGSEKDYADSVKGRFTISRDNSKNTLYLQMNSLRAEDTAVYYCARDRLGNYPWFDVWGQGTLVTVSS
VL: DIQMTQSPSSLSASVGDRVTITCRASQSISNYLAWYQQKPGKAPKLLIYDANNLQSGVPSRFSGSGSGTDFTLTISSLQPEDFATYYCQQSYSWPLTFGQGTKVEIK
m24 (Expression relative to IgG4) [1]: 16.8 relative to IgG4
Mn^2+ MFI [2]: 39400 MFI
KIM127 (Expression relative to IgG4) [3]: 1.92 relative to IgG4
KIM127 (Expression relative to IgG4) [4]: 1.74 relative to IgG4
Mock/Mn^2+ Ratio [5]: 0.72
Mock MFI [6]: 28500 MFI
m24 (Expression relative to IgG4) [7]: 3.5 relative to IgG4

B7: anti-Mac-1 antibody clone 24H01 (antibody, human IgG4, V domains shown)
VH: EVQLVESGGGLVQPGGSLRLSCAASGFTFNNYYMSWVRQAPGKGLEWVSIIYYDGSEADYADSVKGRFTISRDNSKNTLYLQMNSLRAEDTAVYYCARNKDIYSVYGMDYWGQGTLVTVSS
VL: B5 VL with D50A, A51T, N52S, S91A, Y92N, S93N, W94T, L96P
m24 (Expression relative to IgG4) [1]: 1.92 relative to IgG4
Mn^2+ MFI [2]: 23900 MFI
KIM127 (Expression relative to IgG4) [3]: 1.05 relative to IgG4
KIM127 (Expression relative to IgG4) [4]: 1.49 relative to IgG4
Mock/Mn^2+ Ratio [5]: 0.42
Mock MFI [6]: 9940 MFI
m24 (Expression relative to IgG4) [7]: 2.36 relative to IgG4

The next lines start with the values.

m24 (Expression relative to IgG4) [1]: 1 relative to IgG4
Mn^2+ MFI [2]: 41100 MFI
KIM127 (Expression relative to IgG4) [3]: 1.11 relative to IgG4
KIM127 (Expression relative to IgG4) [4]: 0.89 relative to IgG4
Mock/Mn^2+ Ratio [5]: 1.05
Mock MFI [6]: 43100 MFI
m24 (Expression relative to IgG4) [7]: 1.14 relative to IgG4
B3: anti-Mac-1 antibody clone 27G04 (antibody, human IgG4, V domains shown)
VH: B1 VH with Q6E, Y100F, G104D
VL: B1 VL with M21I, Y31D, S76N

m24 (Expression relative to IgG4) [1]: 3.77 relative to IgG4
Mn^2+ MFI [2]: 13000 MFI
KIM127 (Expression relative to IgG4) [3]: 1.13 relative to IgG4
KIM127 (Expression relative to IgG4) [4]: 1.48 relative to IgG4
Mock/Mn^2+ Ratio [5]: 0.36
Mock MFI [6]: 4630 MFI
m24 (Expression relative to IgG4) [7]: 3.87 relative to IgG4
B4: anti-Mac-1 antibody clone DF4M-31 (antibody, human IgG4, V domains shown)
VH: EVQLVESGGGLVQPGGSLRLSCAASGFTFTSATMSWVRQAPGKGLEWVSIISPGGSETYYADSVKGRFTISRDNSKNTLYLQMNSLRAEDTAVYYCARGGDYPSYYMDPWGQGTLVTVSS
VL: B5 VL with D50G, A51T, N52S, N53S, S91G, Y92H, S93Q, L96W

m24 (Expression relative to IgG4) [1]: 15.7 relative to IgG4
Mn^2+ MFI [2]: 35200 MFI
KIM127 (Expression relative to IgG4) [3]: 1.82 relative to IgG4
KIM127 (Expression relative to IgG4) [4]: 1.64 relative to IgG4
Mock/Mn^2+ Ratio [5]: 0.69
Mock MFI [6]: 24400 MFI
m24 (Expression relative to IgG4) [7]: 4.37 relative to IgG4
B6: anti-Mac-1 antibody clone DF4-22 (antibody, human IgG4, V domains shown)
VH: EVQLVESGGGLVQPGGSLRLSCAASGFTFTDYNVHWVRQAPGKGLEWVSGINSSGSETNYADSVKGRFTISRDNSKNTLYLQMNSLRAEDTAVYYCARDSVFKTVGGYDAVMDYWGQGTLVTVSS
VL: B5 VL with S30Y, D50G, A51T, N52S, N53T, Q89M, W94S, L96T
